The text below walks through data of patent US20110280881A1 (RIKEN, published 2011).

One experiment concerns the target T1, mouse HSP90α (NP-034610) (mouse, UniProt P07901 2-733).
T1 construct: whole, on cells; also called cell surface HSP90α
Put plainly: antibody bound to living DC2.4 cells, lysis, Protein G-Sepharose, blot. As for the experimental part:
(§1) Mammalian HSP90 occurs in two isoforms: HSP90α and β. The following experiment was performed to determine whether not only HSP90α but also HSP90β is recognized by the antibody of the present invention. […] After being thoroughly washed to remove the unreacted antibody, the cells were lysed; the lysate was centrifuged at 10,000×g, and the resulting supernatant was incubated along with Protein G-Sepharose. The bound material was subjected to SDS-PAGE, after which blotting was performed using an anti-HSP90α antibody (SPS-771, Assay designs), an anti-HSP90β antibody (PB-118-P1, Neomarkers), or an antibody that recognizes both HSP90α and β (6B1C4, another antibody obtained in Example 1).

Another experiment has as its target T2, mouse HSP90β (NP-032328) (mouse, UniProt P11499 2-724).
T2 construct: whole, on cells; also called cell surface HSP90β
The description is as above. On the procedure:
as §1

T2 sequence (P11499 2-724): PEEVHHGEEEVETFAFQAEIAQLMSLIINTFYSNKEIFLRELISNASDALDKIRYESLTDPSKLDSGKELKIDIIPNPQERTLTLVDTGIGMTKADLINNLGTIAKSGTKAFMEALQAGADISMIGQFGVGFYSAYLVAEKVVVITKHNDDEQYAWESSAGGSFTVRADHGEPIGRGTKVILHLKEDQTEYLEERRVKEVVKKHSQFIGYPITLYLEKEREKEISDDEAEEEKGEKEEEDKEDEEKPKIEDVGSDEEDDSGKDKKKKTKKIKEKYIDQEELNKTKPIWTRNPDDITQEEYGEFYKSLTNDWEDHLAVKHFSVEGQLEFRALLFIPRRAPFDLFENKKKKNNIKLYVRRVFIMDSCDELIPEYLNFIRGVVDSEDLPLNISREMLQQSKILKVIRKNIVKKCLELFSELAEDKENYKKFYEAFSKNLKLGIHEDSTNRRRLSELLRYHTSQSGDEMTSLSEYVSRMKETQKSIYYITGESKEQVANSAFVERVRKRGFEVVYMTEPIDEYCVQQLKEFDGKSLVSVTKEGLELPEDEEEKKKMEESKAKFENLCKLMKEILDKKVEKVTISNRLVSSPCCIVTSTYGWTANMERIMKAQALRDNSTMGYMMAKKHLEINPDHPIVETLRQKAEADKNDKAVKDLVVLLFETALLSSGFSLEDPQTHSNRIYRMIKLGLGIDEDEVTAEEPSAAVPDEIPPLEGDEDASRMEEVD

B1: 6H8D2 anti-HSP90 monoclonal antibody (hybridoma FERM BP-11222) (antibody, V domains shown)
VH: QVQLQQSGPELVKPGASVRISCKASGYTFTSYYIHWVKQRPGQGLEWIGWIYPGNVNTKYNEKFKGKATLTADKSSSTAYMQLSSLTSEDSAVYFCARYGNYPFAYWGQGTLVTVSA
VL: DVVMTQTPLSLPVSLGDQASISCRSSQSLVHSNGNTYLHWYLQKPGQSPKLLIYKVSNRFSGVPDRFSGSGSGTDFTLKISRVEAEDLGVYFCSQSTHVPPTFGGGTKLEIKR
notes: Mouse monoclonal IgG from a hybridoma; Normal mouse IgG2a served as its control; It was biotinylated for FACS; also called 6H8 antibody; 6H8 mAb
Consider B1, for which the binding result in the experiment with mouse HSP90α (NP-034610) and in the experiment with mouse HSP90β (NP-032328) was “binds” throughout.
